Experimental data published in patent publication US20230159624A1.

Columns and labels:
[1] = biological target: MT1-MMP (R&D, 918-MP-010) (UniProt P50281); experiment: enzyme inhibition kinetics with fluorescent substrate, LS-55 spectrofluorimeter
[2] = biological target: MT1-MMP (R&D, 918-MP-010) (UniProt P50281); experiment: enzyme inhibition kinetics with fluorescent substrate Mca-K-P-L-G-L-Dpa-A-R-NH2, LS-55 spectrofluorimeter

Ki^app [1]: > 150 nM | Ki^app [2]: 178 nM
Substance: Wild Type TIMP-1 (inhibitory domain) (from UniProt P01033 24-149)
